Substrate in the series: OC[C@H]1O[C@@H](O)[C@H](O)[C@@H](O)[C@@H]1O
Briefly: GOx activity assay, glucose oxidase-horseradish peroxidase coupled system with o-dianisidine. Conditions: other: control, glucose conversion; 37.0 °C. It counts as biochemical, Aspergillus niger.

B1: glucose oxidase (GOx) (Aspergillus niger) (protein)
chain: LPHYIRSNGIEASLLTDPKDVSGRTVDYIIAGGGLTGLTTAARLTENPNISVLVIESGSYESDRGPIIEDLNAYGDIFGSSVDHAYETVELATNNQTALIRSGNGLGGSTLVNGGTWTRPHKAQVDSWETVFGNEGWNWDNVAAYSLQAERARAPNAKQIAAGHYFNASCHGVNGTVHAGPRDTGDDYSPIVKALMSAVEDRGVPTKKDFGCGDPHGVSMFPNTLHEDQVRSDAAREWLLPNYQRPNLQVLTGQYVGKVLLSQNGTTPRAVGVEFGTHKGNTHNVYAKHEVLLAAGSAVSPTILEYSGIGMKSILEPLGIDTVVDLPVGLNLQDQTTATVRSRITSAGAGQGQAAWFATFNETFGDYSEKAHELLNTKLEQWAEEAVARGGFHNTTALLIQYENYRDWIVNHNVAYSELFLDTAGVASFDVWDLLPFTRGYVHILDKDPYLHHFAYDPQYFLNELDLLGQAAATQLARNISNSGAMQTYFAGETIPGDNLAYDADLSAWTEYIPYHFRPNYHGVGTCSMMPKEMGGVVDNAARVYGVQGLRVIDGSIPPTQMSSHVMTVFYAMALKISDAILEDYASMQ
notes: purchased Sigma Aldrich
For orientation: Km means the substrate concentration at which the rate is half of its maximum. The term kcat denotes the maximal rate divided by the concentration of active sites. In the case of B1, the Km was 15 ± 2 mM and the kcat amounted to 0.00233 ± 0.00017 s⁻¹.

Values taken from publication PMC7794297.
